# Data: patent US20260167699A1 (Chugai, published 2026)
# B1: GpH7-A5/GpH7-B3 variant Q295_07I/GpL16-k0 (antibody, human IgG1, kappa)
# heavy 1: not shown
# heavy 2: not shown
# light: DIVMTQSPLSLPVTPGEPASISCQASESLVHSNRNTYLHWYLQKPGQSPQLLIYKVSNRFSGVPDRFSGSGSGTDFTLKISRVEAEDVGVYYCSQNTHVPPTFGQGTKVEIERTVAAPSVFIFPPSDEQLKSGTASVVCLLNNFYPREAKVQWKVDNALQSGNSQESVTEQDSKDSTYSLSSTLTLSKADYEKHKVYACEVTHQGLSSPVTKSFNRGEC
# notes: copies: 1 + 1 + 2
# B2: GpH7-A5/GpH7-B3 variant Q295_08L/GpL16-k0 (antibody, human IgG1, kappa)
# heavy 1: not shown
# heavy 2: not shown
# light: B1 light
# notes: copies: 1 + 1 + 2
# B3: GpH7-A5/GpH7-B3 variant Q295_09D/GpL16-k0 (antibody, human IgG1, kappa)
# heavy 1: not shown
# heavy 2: not shown
# light: B1 light
# notes: copies: 1 + 1 + 2
# B4: GpH7-A5/GpH7-B3 variant Q295_10E/GpL16-k0 (antibody, human IgG1, kappa)
# heavy 1: not shown
# heavy 2: not shown
# light: B1 light
# notes: copies: 1 + 1 + 2
# B5: GpH7-A5/GpH7-B3 variant Q295_11K/GpL16-k0 (antibody, human IgG1, kappa)
# heavy 1: not shown
# heavy 2: not shown
# light: B1 light
# notes: copies: 1 + 1 + 2
# B6: GpH7-A5/GpH7-B3 variant Q295_12R/GpL16-k0 (antibody, human IgG1, kappa)
# heavy 1: not shown
# heavy 2: not shown
# light: B1 light
# notes: copies: 1 + 1 + 2
# B7: GpH7-A5/GpH7-B3 variant Q295_13S/GpL16-k0 (antibody, human IgG1, kappa)
# heavy 1: not shown
# heavy 2: not shown
# light: B1 light
# notes: copies: 1 + 1 + 2
# B8: GpH7-A5/GpH7-B3 variant Q295_14T/GpL16-k0 (antibody, human IgG1, kappa)
# heavy 1: not shown
# heavy 2: not shown
# light: B1 light
# notes: copies: 1 + 1 + 2
# B9: GpH7-A5/GpH7-B3 variant Q295_15Y/GpL16-k0 (antibody, human IgG1, kappa)
# heavy 1: not shown
# heavy 2: not shown
# light: B1 light
# notes: copies: 1 + 1 + 2
# B10: GpH7-A5/GpH7-B3 variant Q295_16H/GpL16-k0 (antibody, human IgG1, kappa)
# heavy 1: not shown
# heavy 2: not shown
# light: B1 light
# notes: copies: 1 + 1 + 2
# B11: GpH7-A5/GpH7-B3 variant Q295_18N/GpL16-k0 (antibody, human IgG1, kappa)
# heavy 1: not shown
# heavy 2: not shown
# light: B1 light
# notes: copies: 1 + 1 + 2
# B12: GpH7-A5/GpH7-B3 variant S239_01G/GpL16-k0 (antibody, human IgG1, kappa)
# heavy 1: not shown
# heavy 2: not shown
# light: B1 light
# notes: copies: 1 + 1 + 2
# B13: GpH7-A5/GpH7-B3 variant S239_02A/GpL16-k0 (antibody, human IgG1, kappa)
# heavy 1: not shown
# heavy 2: not shown
# light: B1 light
# notes: copies: 1 + 1 + 2
# B14: GpH7-A5/GpH7-B3 variant S239_03V/GpL16-k0 (antibody, human IgG1, kappa)
# heavy 1: not shown
# heavy 2: not shown
# light: B1 light
# notes: copies: 1 + 1 + 2
# B15: GpH7-A5/GpH7-B3 variant S239_06M/GpL16-k0 (antibody, human IgG1, kappa)
# heavy 1: not shown
# heavy 2: not shown
# light: B1 light
# notes: copies: 1 + 1 + 2
# B16: GpH7-A5/GpH7-B3 variant S239_07I/GpL16-k0 (antibody, human IgG1, kappa)
# heavy 1: not shown
# heavy 2: not shown
# light: B1 light
# notes: copies: 1 + 1 + 2
# B17: GpH7-A5/GpH7-B3 variant S239_08L/GpL16-k0 (antibody, human IgG1, kappa)
# heavy 1: not shown
# heavy 2: not shown
# light: B1 light
# notes: copies: 1 + 1 + 2
# B18: GpH7-A5/GpH7-B3 variant S239_09D/GpL16-k0 (antibody, human IgG1, kappa)
# heavy 1: not shown
# heavy 2: not shown
# light: B1 light
# notes: copies: 1 + 1 + 2
# B19: GpH7-A5/GpH7-B3 variant S239_10E/GpL16-k0 (antibody, human IgG1, kappa)
# heavy 1: not shown
# heavy 2: not shown
# light: B1 light
# notes: copies: 1 + 1 + 2
# B20: GpH7-A5/GpH7-B3 variant S239_14T/GpL16-k0 (antibody, human IgG1, kappa)
# heavy 1: not shown
# heavy 2: not shown
# light: B1 light
# notes: copies: 1 + 1 + 2
# B21: GpH7-A5/GpH7-B3 variant S239_18N/GpL16-k0 (antibody, human IgG1, kappa)
# heavy 1: not shown
# heavy 2: not shown
# light: B1 light
# notes: copies: 1 + 1 + 2
# B22: GpH7-A5/GpH7-B3 variant S239_19Q/GpL16-k0 (antibody, human IgG1, kappa)
# heavy 1: not shown
# heavy 2: not shown
# light: B1 light
# notes: copies: 1 + 1 + 2
# B23: GpH7-A5/GpH7-B3 variant S267_01G/GpL16-k0 (antibody, human IgG1, kappa)
# heavy 1: not shown
# heavy 2: not shown
# light: B1 light
# notes: copies: 1 + 1 + 2
# B24: GpH7-A5/GpH7-B3 variant S267_02A/GpL16-k0 (antibody, human IgG1, kappa)
# heavy 1: not shown
# heavy 2: not shown
# light: B1 light
# notes: copies: 1 + 1 + 2
# B25: GpH7-A5/GpH7-B3 variant S267_06M/GpL16-k0 (antibody, human IgG1, kappa)
# heavy 1: not shown
# heavy 2: not shown
# light: B1 light
# notes: copies: 1 + 1 + 2
# B26: GpH7-A5/GpH7-B3 variant S267_09D/GpL16-k0 (antibody, human IgG1, kappa)
# heavy 1: not shown
# heavy 2: not shown
# light: B1 light
# notes: copies: 1 + 1 + 2
# B27: GpH7-A5/GpH7-B3 variant S267_10E/GpL16-k0 (antibody, human IgG1, kappa)
# heavy 1: not shown
# heavy 2: not shown
# light: B1 light
# notes: copies: 1 + 1 + 2
# B28: GpH7-A5/GpH7-B3 variant S267_18N/GpL16-k0 (antibody, human IgG1, kappa)
# heavy 1: not shown
# heavy 2: not shown
# light: B1 light
# notes: copies: 1 + 1 + 2
# B29: GpH7-A5/GpH7-B3 variant S267_19Q/GpL16-k0 (antibody, human IgG1, kappa)
# heavy 1: not shown
# heavy 2: not shown
# light: B1 light
# notes: copies: 1 + 1 + 2
# B30: GpH7-A5/GpH7-B3 variant S298_01G/GpL16-k0 (antibody, human IgG1, kappa)
# heavy 1: not shown
# heavy 2: not shown
# light: B1 light
# notes: copies: 1 + 1 + 2
# Molecular target: T1, FcγRIIIa (human, UniProt P08637 17-208)
# T1 construct: extracellular domain; also called 3a; FcγRIIIa extracellular domain
# Assay: SPR (Biacore);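 further: antibody variants captured on an SPR sensor chip, with FcγRIIIa passed over as analyte in HBS-EP+ buffer at 25 °C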
# T1 sequence (P08637 other isoform, or with tags, fused parts or gaps): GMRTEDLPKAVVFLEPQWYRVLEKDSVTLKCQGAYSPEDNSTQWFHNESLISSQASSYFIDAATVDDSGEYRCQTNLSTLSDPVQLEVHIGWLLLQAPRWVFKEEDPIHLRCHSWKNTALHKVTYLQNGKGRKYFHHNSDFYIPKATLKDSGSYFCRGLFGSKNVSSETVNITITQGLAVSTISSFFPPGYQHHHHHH
row,Binder,He/Con 3a
1,B1,101 % of GpH7-A5/GpH7-B3/GpL16-k0
2,B2,120 % of GpH7-A5/GpH7-B3/GpL16-k0
3,B3,85.6 % of GpH7-A5/GpH7-B3/GpL16-k0
4,B4,105 % of GpH7-A5/GpH7-B3/GpL16-k0
5,B5,81.8 % of GpH7-A5/GpH7-B3/GpL16-k0
6,B6,73.2 % of GpH7-A5/GpH7-B3/GpL16-k0
7,B7,90.4 % of GpH7-A5/GpH7-B3/GpL16-k0
8,B8,120 % of GpH7-A5/GpH7-B3/GpL16-k0
9,B9,81.5 % of GpH7-A5/GpH7-B3/GpL16-k0
10,B10,80.2 % of GpH7-A5/GpH7-B3/GpL16-k0
11,B11,85.7 % of GpH7-A5/GpH7-B3/GpL16-k0
12,B12,72 % of GpH7-A5/GpH7-B3/GpL16-k0
13,B13,70.9 % of GpH7-A5/GpH7-B3/GpL16-k0
14,B14,72.4 % of GpH7-A5/GpH7-B3/GpL16-k0
15,B15,73.9 % of GpH7-A5/GpH7-B3/GpL16-k0
16,B16,75 % of GpH7-A5/GpH7-B3/GpL16-k0
17,B17,90 % of GpH7-A5/GpH7-B3/GpL16-k0
18,B18,156 % of GpH7-A5/GpH7-B3/GpL16-k0
19,B19,171 % of GpH7-A5/GpH7-B3/GpL16-k0
20,B20,93 % of GpH7-A5/GpH7-B3/GpL16-k0
21,B21,104 % of GpH7-A5/GpH7-B3/GpL16-k0
22,B22,53.8 % of GpH7-A5/GpH7-B3/GpL16-k0
23,B23,53.3 % of GpH7-A5/GpH7-B3/GpL16-k0
24,B24,149 % of GpH7-A5/GpH7-B3/GpL16-k0
25,B25,65.3 % of GpH7-A5/GpH7-B3/GpL16-k0
26,B26,179 % of GpH7-A5/GpH7-B3/GpL16-k0
27,B27,90.9 % of GpH7-A5/GpH7-B3/GpL16-k0
28,B28,52 % of GpH7-A5/GpH7-B3/GpL16-k0
29,B29,64.3 % of GpH7-A5/GpH7-B3/GpL16-k0
30,B30,74.9 % of GpH7-A5/GpH7-B3/GpL16-k0
